Test results reported in paper PMC4200255.

Molecular target: recombinant purified protein HSP70-1A (UniProt P0DMV8)
UniProt P0DMV8, sequence (P0DMV8 whole entry): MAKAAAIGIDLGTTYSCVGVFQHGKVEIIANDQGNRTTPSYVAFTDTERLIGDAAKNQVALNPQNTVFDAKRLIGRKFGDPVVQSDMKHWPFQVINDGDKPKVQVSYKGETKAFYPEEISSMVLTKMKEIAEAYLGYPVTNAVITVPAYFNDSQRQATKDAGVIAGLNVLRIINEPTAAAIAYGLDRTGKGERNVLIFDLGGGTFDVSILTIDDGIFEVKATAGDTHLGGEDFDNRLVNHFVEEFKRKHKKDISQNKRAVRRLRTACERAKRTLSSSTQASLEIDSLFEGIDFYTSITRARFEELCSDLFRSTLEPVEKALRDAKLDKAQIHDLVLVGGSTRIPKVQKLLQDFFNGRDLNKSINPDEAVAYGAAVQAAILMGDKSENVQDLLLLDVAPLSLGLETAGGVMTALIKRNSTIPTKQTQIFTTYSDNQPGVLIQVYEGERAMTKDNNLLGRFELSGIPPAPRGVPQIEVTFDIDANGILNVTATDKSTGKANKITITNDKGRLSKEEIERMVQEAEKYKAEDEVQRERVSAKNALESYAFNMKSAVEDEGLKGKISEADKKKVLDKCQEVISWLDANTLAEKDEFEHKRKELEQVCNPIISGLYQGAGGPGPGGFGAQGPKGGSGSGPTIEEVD

| Binder | stimulation of the ATPase activity of 0.7 μM HSP70 by 500 μM peptide (malachite green, 37 °C) [fold] |
| --- | --- |
| TPGTFKERIIKSITPETPTE [20-mer peptide of the serotonin transporter C terminus (lacks the first 4 amino acids RLII)] | 2 |
| RLIITPGTFKERIIKSITPETPTE [24-mer peptide of the serotonin transporter C terminus] | 4 |
